These results are taken from the DeepSol protein solubility set.

The data set is described as follows: soluble on expression in E. coli; label from the status in PepcDB or PDB records.
For “MMRMKVKVVVNGKEYEVEVEEVMPGKFRVTLEGETYEVETSAGFVTSPKQVQVPTPAPTPAPAPTPTPAPAPSSKTVVSENVVSAPMPGKVLRVLVRVGDRVRVGQGLLVLEAMKMENEIPSPRDGVVKRILVKEGEAVDTGQPLIELG”, the “soluble on expression in E. coli” value is “soluble”.

Turning to “MGARKASAGASRAATAGVRISHPQRLIDPSIQASKLELAEFHARYADLLLRDLRERPVSLVRGPDGIGGELFFQKHAARLKIPGIVQLDPALDPGHPPLLQIRSAEALVGAVQMGSIEFHTWNASLANLERPDRFVLDLDPDPALPWKRMLEATQLSLTLLDELGLRAFLKTSGGKGMHLLVPLERRHGWDEVKDFAQAISQHLARLMPERFSAVSGPRNRVGKIFVDYLRNSRGASTVAAYSVRAREGLPVSVPVFREELDSLQGANQWNLRSLPQRLDELAGDDPWADYAGTRQRISAAMRRQLGRG”, the “soluble on expression in E. coli” value is reported as “soluble”.

Turning to “GPDFNWTSVLNLTHNRNKIVALDGDIKQSVEGSWFIHKIGLPYNSFYVKEFAGVDPSTGKGLYYLNTQDEKGNYNREMTDDASKAQAIPYKSADPKISGGFTNILSYKWFDLGLTFTYSLGGYSFDKTGTLIETDGSKEKSYNLPVYALDRWQKPGDRTDVPRFVLEQGAGPQNSSRYIHSTDHIRLKNLTLGFTLPGRWVQKALIENARVYFSGSNLLTWAKWKQYDPEVPVNGEVFCEAPPMRTFNFGVEITF”, the “soluble on expression in E. coli” value is “not soluble”.

As to “MAHHHHHHMALQENRDSYKVKALSLSEFVQQCSDCHQLCLEKTVRVLDNRSRAPRGWEALFNSVAEERRSEDLDLCESRCRYMQTTCPSQDKVQQYEQALAAASLKLKKSTPPNPSVLQDASRCEHAVEVFSNVLFALAHKPSKVSFPTKDLKTGGNTDAESHAGAPTEAHRKVLEGAKNMDNDVSCRSSKLRHERFGSKAQDVASSTGSSLAPDTAAASPASSGTTPKW”, the “soluble on expression in E. coli” value is reported as “not soluble”.

As for “MFKILRKERLAPGINLFEIESPRIAKHAKPGQFVMIRLHEKGERIPLTIADVDISKGSITIVAQEVGKTTRELGTYEAGDYILDVLGPLGKPSHIDYFGTVVMIGGGVGVAEIYPVAKAMKEKGNYVISILGFRTKDLVFWEDKLRSVSDEVIVTTNDGSYGMKGFTTHALQKLIEEGRKIDLVHAVGPAIMMKAVAELTKPYGIKTVASLNPIMVDGTGMCGACRVTVGGEVKFACVDGPEFDAHLVDWDQLMNRLAYYRDLEKISLEKWERERRMV”, the “soluble on expression in E. coli” value was “not soluble”.

On to “MSLKGDDIEEGKELVATHIAEGLYHDGKFVGYVKRAHDVDVNLNAHTMFENLVVKASGVLSAIQMLRHSKIDPAEIDYVIECSEEACGDINQRGGGNFAKSIAEIAGLQNATGSDTRGFCAAPTHALIQAAALVKAGIHKNVMVVAGGASAKLGMNAKDHVKKGLPVLEDVVGGFAVLVSENDGVNPVIRTDLTGKHTVGTGSSPQAVMTALITSGLDRANLKITDVDVYSVEMQNPDITKPAGAGDVPEANYKMIGALAVKRGDLEKKELKDFVSNKGLPGWAPTQGHIPSGAPYIGFLIDDLTTGNRNRAMIVGKGSLFLGRMTNLFDGVSFIAERNTGVTEETSGISKDEIKKIIAESMKKLALDMLEEGHHHHHH”, for which the “soluble on expression in E. coli” value is “not soluble”.

For the sequence “MDNEFTSPVYGVKAVPVERIRANSYNPNVTAPPEMRLLELSIWEDGYTMPCVCYYIEKEDVYELVDGYHRYKVMMTSPRIYKRENGLLPVTVIRKDLAERMASTIRHNRARGMHKIELMTRLVGELTRSGMSDSWIRRNLGMDKDELLRLKQISGLAELFADKEFRKAVE”, the “soluble on expression in E. coli” value is listed as “not soluble”.

Consider “MGSDKIHHHHHHMPAFIKKELIMKLQGAGLGYRRNLAEDFLQLPSNNAIQFIEVAPENWSKMGGMARYQFDQAAERFPLAVHGLSLSLGGQAPLDRELLRNTKALINQYNSSFFSEHLSYCECEGHLYDLLPMPFTEEAVKHVAQRIRDVQDFLGLQISLENTSYYLHSPTSTMNEVEFLNAIAQEADCGIHLDVNNIYVNGVNHGLLDPYIFLDQVDVKRVNYIHIAGHDEEHSAAQVVENSANESFNKVKGAYRHLPELLIDTHGEAVKGTVWDLLEYAYQRLPTIPPTLLERDFNFPPFAELYAEVEHIAQLQQKYAHTEVMSYAA”, for which the “soluble on expression in E. coli” value was “not soluble”.

Take “MSLKPEEIVEGLLSGNRRALARAITYVENEYPESKEIMRQIFAKTGRAHVVGLTGFPGVGKSTLVSKLTEEFRRRGKKVGIIAIDPGSPFTGGALLGDRLRLDGMDSRKQLWTDPGIFFRSMSSRGRAGGLAAKTGDVVRLLDAFGFDVILVETVGAGQSEVDIIEVADTSVVVMMPETGDEIQVNKAGILEIGDIYVVNKADLGGAEKVERWLRYMLSLDEESVQMLSQMTHADEARVQSGEFFERRKGWNPPVIKTVADRGEGIKELADAIEEHFDYMKKTGLIEKRRRERVKRELFEIVMNDVIKLVKEKTNYRDLLVKLLKGETDPYTAAEQIVEEVIHNAGKGEGHHHHHH”: the “soluble on expression in E. coli” value is listed as “soluble”.

As for “MGSDKIHHHHHHDWLDLNTTSSVETGQAIVTLDDAQIALNGIYRLASGHSYYGDNYWYYGDCRAADVQARITKGDGKRVSPYYEYNVLASDNLNIVLPWNTVYKVIRQTNNLIQKIESGSIQSSDTKELNRIKSEALVMRGLSLFNLTRLFGMPYTNDKGASLGVPIETSPSDPTHKPSRSTVAQCYEQVVSDMSNALSGLRQETSNGYINYWAAQALLSRVYLNMGEYQKAYDAATDVIKNNGGRYQLYSYEEYPNVWGQDFQSESLFELYITLSEPSGGTGGEGAPMVYANEATVDWNNLILSEDFLNLLNEDPKDVRHCLTKESVIENNTGLPAAAMHEKVYLAKFPGKTGDDPKTNNICIIRLSEVYLNAAEAGLKKGTDIEEAQGYLNDIISRRTTDTSQQVSTETFTLDRILKERRKELVGEGEVFYDYLRNGLAIERKGSWHLETLKASNAQKIEATDLRIALPIPQSEIDANPNIQQNPR”, the “soluble on expression in E. coli” value is “not soluble”.

With “GLFQFLRIVMRPSDQLLGLDEKGTIRTIDETGKASPIPGMVIYRFNSPLTYFNAPYFKRRLLEHAEQNKDVSCVVVDAVSSFTHLDLSVMATLADIHEVLKKRGIRLVLAGRKRRLRQWCELTGISTSEGGILLRADMYLAIKLSGSYLSAVGEGIVPTVQKEPDLEQPPKPIPEVA”, the “soluble on expression in E. coli” value is on record as “not soluble”.

Consider “LPYPIPIALTDALDRSVSAELVAVLVAVTQGEPRVLTTEDARALPAGPFELAHRSLQAGLRAWVETQTHHPLGYVEQLYTFADSDRSNEAGARVISVSYLGLTREAGATGVAQVGWQHWYRYFPWEDWRAGRPAIIADEIAPRLLAWAGAGADAAARAQRRQRVALTFGLDGAGWNEDMVLQRYELLFEAGLVPESRHPDASGLPVAGQSMRHDHRRILATGIAR”, for which the “soluble on expression in E. coli” value was “not soluble”.

For the sequence “MHKNREKNAMRREVNRADIGGKSGNKVKDCHVTIIRSLLSQIKENSLRVLLTYRKLFTINTKIAVEFIINSCIVYYKRSPHLL”, the “soluble on expression in E. coli” value is listed as “not soluble”.

On to “MQKELINEIIGEVKPKAIALFGSQAKGKAGKFSDYDLLIITKDEESRNKAEKFEKGKVEIHALTMRTALELIHKGDPFFTQIVKECKPIYGEFYIKFLREVAENVGKSKVVA”, for which the “soluble on expression in E. coli” value is listed as “not soluble”.
